The target of assay [1] is T1, cynomolgus IL-1α (cynomolgus, UniProt P79340 113-271, limits assumed).
T1 construct: also called cyno IL-1α
T1 sequence (looked up): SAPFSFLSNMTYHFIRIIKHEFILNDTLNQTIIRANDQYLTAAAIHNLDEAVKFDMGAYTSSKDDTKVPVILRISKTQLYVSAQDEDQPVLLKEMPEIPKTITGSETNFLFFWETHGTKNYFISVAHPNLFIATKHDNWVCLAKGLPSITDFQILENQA
Put plainly: SPR (BIACORE), antibody captured, IL-1α in solution.

Assay [2] deals with T2, recombinant human IL-1α (human, UniProt P01583 113-271).
T2 construct: also called hIL-1α; rh IL-1α
T2 sequence: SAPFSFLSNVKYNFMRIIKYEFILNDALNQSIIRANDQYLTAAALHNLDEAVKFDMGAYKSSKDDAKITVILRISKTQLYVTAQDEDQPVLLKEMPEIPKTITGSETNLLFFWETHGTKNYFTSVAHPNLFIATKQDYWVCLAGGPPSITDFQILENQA
The assay is described as above.

The target of assay [3] is T2, recombinant human IL-1α. Nature of the assay: ELISA, antibody captured by anti-human Fc, biotinylated human IL-1α titrated. The protocol:
To determine if anti-IL-1α antibodies bind to human IL-1α, ELISA plates (Nunc, MaxiSorp, Rochester, N.Y.) were incubated overnight at 4° C. with anti-human Fc antibody diluted in Pierce Coat buffer at 2 μg/ml (Jackson Immunoresearch, West Grove, Pa.). Plates were washed five times in washing buffer (PBS containing 0.05% Tween 20), and blocked for 1 hour at 25° C. with 200 μl per well superblock blocking buffer (Thermo scientific, #37515). Blocking buffer was removed by tapping plates, and […] of each antibody in PBS containing 10% superblock and 0.5% Tween-20 was added to the wells at 100 μl per well and incubated at 25° C. for 1 hour. The wells were washed five times in 1× PBST, and 1 mg/ml biotinylated antigen was titrated at 1:6 serial dilutions (for a range of mg to pg in PBS containing 10% superblock, 0.05% Tween 20). Each dilution of antigen was then added to the plates and incubated for 1 hour at 25° C. The wells were washed five times in 1× PBST and incubated for 1 hour at 25° C. with polyHRP streptavidin (KPL #474-3000, Gaithersburg, Md.). The wells were washed five times in 1× PBST, and 100 μl of ULTRA-TMB ELISA (Pierce, Rockford, Ill.) were added per well. Following color development, the reaction was stopped with 1N HCL and absorbance at 450 nm was measured. The half-maximal effective concentration (EC₅₀) values are shown in Table 9, and the numerical value indicates binding of anti-IL-1α antibodies to human IL-1α.
(In general: ELISA stands for enzyme-linked immunosorbent assay.)

The target of assay [4] is T1, cynomolgus IL-1α. Put plainly: cell-based or functional assay.
The target in assay [5] is T2, recombinant human IL-1α. Nature of the assay: cell-based or functional assay.

B1: h3D12.r16 (antibody, V domains shown)
VH: EVQLVQSGAEVKKPGASVKVSCKASGYTFKYYGMNWVRQAPGQGLERMGWINTYTGQSTYADDFKGRVTFTLDTSTSTAYMELSSLRSEDTAVYYCARDIYYYGSDFAMDYWGQGTTVTVSS
VL: DIQMTQSPSSLSASVGDRVTITCRASQDISNMLNWYQQKPGKAPKLLIYYTSRLKPGVPSRFSGSGSGTDYTFTISSLQPEDIATYFCQQGKTAPYTFGQGTKLEIK
The term Kd denotes the constant that tells how readily two partners part at equilibrium. As usually defined, the koff is the rate constant with which the complex falls apart. One may read the kon as the rate constant with which the complex forms. As a reminder, the EC50 is the concentration needed to bring the measured effect to its halfway point. Regarding B1, the dissociation constant (Kd) in the assay with cynomolgus IL-1α [1] worked out at 0.0149 nM; with recombinant human IL-1α [2], 0.0308 nM. For the same molecule, the dissociation rate constant (koff) in the assay with cynomolgus IL-1α [1] came out at 1.33e-05 s⁻¹; with recombinant human IL-1α [2], 2.77e-05 s⁻¹. Further, the values for the kon in the assay with cynomolgus IL-1α [1] and with recombinant human IL-1α [2] were 901000 M⁻¹ s⁻¹ and 900000 M⁻¹ s⁻¹, respectively. In the assay with recombinant human IL-1α [3], the concentration giving a half-maximal response (EC50) is 0.072 nM. Further, the “IC50 for Antibody (PM), MRC-5 bioassay (IL-1α-stimulated production of IL-8)” value (from here on “IC50 for Antibody (PM), MRC-5 bioassay”) is 0.0008 nM with cynomolgus IL-1α [4] and 0.0006 nM with recombinant human IL-1α [5].

B2: h3D12.8 (antibody, V domains shown)
VH: EIQLVQSGSELKKPGASVKVSCKASGYTFTNYGMNWVRQAPGQDLERMAWINTYTGESTYADDFKGRFVFSLDTSVSTAYLQISSLKAEDTAVYFCARGIYYYGSSYAMDYWGQGTTVTVSS
VL: DIQMTQSPSSLSASVGDRVTITCRASQDISNCLNWYQQKPGKTPKLLIYYTSRLHSGVPSRFSGSGSGTDYTFTISSLQPEDIATYFCQQGKTLPYAFGQGTKLEIK
notes: also called humanized 3D12 antibody h3D12.8; VH H3D12VH.1A / VL H3D12VK.1C
B2: in the assay with recombinant human IL-1α [2], the dissociation constant (Kd) is 1.35 nM, the dissociation rate constant (koff) was 0.00274 s⁻¹ and the association rate constant (kon) turned out to be 2.04e+06 M⁻¹ s⁻¹. Also, the EC50 in the assay with recombinant human IL-1α [3] came to 0.028 nM. Moreover, the “IC50 for Antibody (PM), MRC-5 bioassay” value in the assay with recombinant human IL-1α [5] amounted to 1.95 nM.

B3: h3D12.r10 (antibody, V domains shown)
VH: EIQLVQSGAEVKKPGASVKVSCKASGYTFAHYGMNWVRQAPGQGLEWMGWINTYTGQSTYADDFKGRFTFTLDTSTSTAYMELSSLRSEDTAVYYCARGIYYFGSNYAMDYWGQGTTVTVSS
VL: DIQMTQSPSSLSASVGDRVTITCRASQDISNMLNWYQQKPGKTPKLLIYYTSRLRSGVPSRFSGSGSGTDYTFTISSLQPEDIATYFCQQGKKPPYTFGQGTKLEIK
Consider B3, for which the dissociation constant (Kd) with cynomolgus IL-1α [1] is 0.00894 nM; with recombinant human IL-1α [2], 0.0324 nM. The values for the off-rate constant (koff) in the assay with cynomolgus IL-1α [1] and in the assay with recombinant human IL-1α [2] were 1.2e-05 s⁻¹ and 3.75e-05 s⁻¹, respectively. Besides, the figures for the kon in the assay with cynomolgus IL-1α [1] and with recombinant human IL-1α [2] were 1.37e+06 M⁻¹ s⁻¹ and 1.16e+06 M⁻¹ s⁻¹, respectively. Further, in the assay with recombinant human IL-1α [3], the EC50 was found to be 0.0692 nM. The “IC50 for Antibody (PM), MRC-5 bioassay” value in the assay with cynomolgus IL-1α [4] is 0.00098 nM; with recombinant human IL-1α [5], 0.0006 nM.

B4: h3D12-362-10/372-15 (antibody, V domains shown)
VH: EVQLVQSGAEVKKPGVSVKVSCKASGYTFTTYGMHWVRQAPGQGLEWMGWINTYTGESTYADDFQGRVTFTLDTSTSTAYMELSSLRSEDTAVYFCARGIYYYGSSYAMNYWGQGTTVTVSS
VL: DIQMTQSPSSLSASVGDRVTITCRASQDISNMLNWYQQKPGKTPKLLIYYTSRLYPGVPSRFSGSGSGTDYTFTISSLQPEDIATYFCQQGKTLPYAFGQGTKLEIK
As to B4, in the assay with cynomolgus IL-1α [1], the Kd came to 0.0578 nM, the koff was determined as 2.25e-05 s⁻¹ and the kon was found to be 389000 M⁻¹ s⁻¹. Further, in the assay with recombinant human IL-1α [2], the dissociation constant (Kd) worked out at 0.115 nM, the dissociation rate constant (koff) turned out to be 4.1e-05 s⁻¹ and the on-rate (kon) was 355000 M⁻¹ s⁻¹. Further, the EC50 with recombinant human IL-1α [3] is 0.007 nM. Moreover, the “IC50 for Antibody (PM), MRC-5 bioassay” value with cynomolgus IL-1α [4] was found to be 0.0126 nM. Also, in the assay with recombinant human IL-1α [5], the “IC50 for Antibody (PM), MRC-5 bioassay” value was determined as 0.006 nM.

B5: h3D12.r37 (antibody, V domains shown)
VH: EIQLVQSGAEVKKPGASVKVSCKASGYTFKYYGMNWVRQAPGQGLERMGWINTYTGESRYADDFKGRVTFTLDTSTSTAYMELSSLRSEDTAVYYCARDIYYFGSDYAMDYWGQGTTVTVSS
VL: DIQMTQSPSSLSASVGDRVTITCRASQDISNRLNWYQQKPGKAPKLLIYYASRLKPGVPSRFSGSGSGTDYTFTISSLQPEDIATYFCQQGNTPPYTFGQGTKLEIK
As to B5, in the assay with cynomolgus IL-1α [1], the Kd was 0.0394 nM, the off-rate (koff) amounted to 3.82e-05 s⁻¹ and the association rate constant (kon) was determined as 970000 M⁻¹ s⁻¹. In the assay with recombinant human IL-1α [2], the equilibrium dissociation constant (Kd) stood at 0.0281 nM, the koff amounted to 2.54e-05 s⁻¹ and the kon turned out to be 896000 M⁻¹ s⁻¹. Further, the EC50 in the assay with recombinant human IL-1α [3] turned out to be 0.114 nM. For the same molecule, in the assay with cynomolgus IL-1α [4], the “IC50 for Antibody (PM), MRC-5 bioassay” value amounted to 0.0006 nM. Further, the “IC50 for Antibody (PM), MRC-5 bioassay” value with recombinant human IL-1α [5] amounted to 0.0014 nM.

B6: h3D12.16 (antibody, V domains shown)
VH: EIQLVQSGAEVKKPGASVKVSCKASGYTFTNYGMNWVRQAPGQDLERMAWINTYTGESTYADDFKGRFTFTLDTSTSTAYMELSSLRSEDTAVYFCARGIYYYGSSYAMDYWGQGTTVTVSS
VL: DIQMTQSPSSLSASVGDRVTITCRASQDISNCLNWYQQKPGKTPKLLIYYTSRLHSGVPSRFSGSGSGTDYTFTISSLQPEDIATYFCQQGKTLPYAFGQGTKLEIK
notes: also called humanized 3D12 antibody h3D12.16; VH H3D12VH.2A / VL H3D12VK.1C
In the case of B6, in the assay with recombinant human IL-1α [2], the equilibrium dissociation constant (Kd) was 2.09 nM, the off-rate constant (koff) came to 0.00253 s⁻¹ and the kon was determined as 1.21e+06 M⁻¹ s⁻¹. For the same molecule, the EC50 in the assay with recombinant human IL-1α [3] is 0.01 nM. Also, in the assay with recombinant human IL-1α [5], the “IC50 for Antibody (PM), MRC-5 bioassay” value was 1.36 nM.

B7: murine anti-human IL-1α monoclonal antibody 3D12 (antibody, V domains shown)
VH: QIQLVQSGPELKKPGETVKISCKASGYTFRNYGMNWVKQAPGKDLKRMAWINTYTGESTYADDFKGRFAFSLETSASTAYLQINNLKNEDTATYFCARGIYYYGSSYAMDYWGQGTSVTVSS
VL: IQMTQTTSSLSASLGDRVTISCRASQDISNCLNWYQQKPDGTVKLLIYYTSRLHSGVPSRFSGSGSGTDYSLTISNLEQEDIATYFCQQGKTLPYAFGGGTKLEINR
Consider B7, for which the “IC50 for Antibody (PM), MRC-5 bioassay” value came out at 0.0723 nM in the assay with cynomolgus IL-1α [4] and 1.88 nM with recombinant human IL-1α [5].

The values above are taken from patent US20110165063A1 (published 2011).
